The target in one data set is T1, O‐Mad2^R133A (Homo sapiens, UniProt Q13257, R133A).
T1 construct: unable to collect equivalent data for full‐length O‐Mad2^R133A; His6-DoubleStrep-TEV (N); made in house
The data set is described as follows: Time-resolved NMR: O-Mad2 to C-Mad2 conversion of O-Mad2^R133A with MIM peptides. Type of data set: biochemical. Particulars: 100 μM O-Mad2^R133A, 25°C. The method, then: FIGURE 2 NMR fingerprinting of Mad2. (a) Structural orientations of Trp75 (on the αB helix) and Trp167 (on the “safety‐belt”) in Mad2 produce distinct indole NH resonances. […] NMR spectra for O‐Mad2^R133A and “empty” C‐Mad2^L13A/R133A and C‐Mad2^R133A:Cdc20^MIM‐111‐138 are from Fischer et al. ([2022]) (c) Mad2 conversion rates vary with different MIM peptides. Conversion was traced over 24 h at 25°C using the Trp75 and Trp167 side‐chain resonances as reporters. MIM peptides were added at two‐fold molar excess to Mad2 (100 μM). Each spectrum required 12 min of acquisition time, therefore the 15 min time‐points represent the earliest spectra in the time‐resolved series. The schematics show the conformation of Mad2 as indicated by the tryptophan side‐chain resonances. A black tick marks when conversion is considered complete. NMR data for O‐Mad2^R133A with and without Cdc20^MIM‐111‐138 shown are from Fischer et al. ([2022]). In the case of full‐length Cdc20, the MIM sequence is sequestered by an auto‐inhibitory intramolecular interaction within Cdc20 itself, which prevents it from being readily accessible for binding to C‐Mad2 (Piano et al., [2021]). Conversely, isolated MIM peptides lack this auto‐inhibitory mechanism, allowing them to bind directly to C‐Mad2 without obstruction.
To understand whether Mad2 conversion times are modulated by different C‐Mad2 ligands, we used time‐resolved NMR to determine the conversion time of 100 μM O‐Mad2^R133A at 25°C. The indole NH resonances of Trp75 and Trp167 were used as reporters (Figure 2b). […] In contrast, conversion took ~24 h in the absence of Cdc20^MIM‐111‐138 peptide (Fischer et al., [2022]) (Figures 2c and S4b). […] Other MIM peptides also accelerated the O‐Mad2 to C‐Mad2 conversion. […] In “empty” C‐Mad2, the β7/β8 hairpin is displaced to expose the β6 strand for pairing with the MIM peptide (Luo et al., [2004]) (Figure S3a).
Mad2 constructs were expressed in BL21 Star (DE3) cells (Thermo Fisher Scientific), co‐transformed with a pRARE plasmid (Merck). Uniformly labeled proteins were expressed in M9 minimal media (6 g/L Na2HPO4, 3 g/L KH2PO4, 0.5 g/L NaCl) supplemented with 1.7 g/L yeast nitrogen base without NH4Cl and amino acids (Sigma Y1251). 1 g/L ^15NH4Cl and 4 g/L glucose were supplemented for ^15N labeling. For ^13C/^15N double‐labeled samples, unlabeled glucose was replaced with 3 g/L ^13C‐glucose. Protein expression was induced with 0.4 mM IPTG at 16°C overnight. All samples were purified as previously described (Luo & Yu, [2005]; Mapelli et al., [2007]) and all O‐Mad2 variants were kept at 4°C during purification to prevent conversion to C‐Mad2. Prior to all NMR experiments, proteins were dialyzed into 20 mM HEPES, pH 7.0, 100 mM NaCl, 1 mM TCEP. ^13C/^15N‐labeled samples were used for backbone assignment, and all other experimental data were acquired on ^15N‐labeled samples. Proteins were kept on ice before NMR experiments to ensure all O‐Mad2 remained in the open state. For “bound” C‐Mad2, MIM peptides were added in 1:2 molar excess to ensure complete conversion.
All peptides were synthesized by Cambridge Research Biochemicals, UK. Peptides were dialyzed into 20 mM HEPES, pH 7.0, 100 mM NaCl, and 1 mM TCEP for NMR experiments. The sequences for the peptides used in this study are: Cdc20^MIM‐111‐138 ([…]), Cdc20^MIM‐123‐137 (FDVEEAKILRLSGKP), Cdc20^MIM‐123‐152 ([…]), Cdc20^MIM‐138‐152 (QNAPEGYQNRLKVLY), Mad1^MIM‐529‐550 ([…]), and MBP1^MIM (SWYSYPPPQRAV). […]

A further data set relates to Mad2^∆β7/β8. Particulars: ref Yang et al., [2008]; cited from earlier work. The text has this: We reasoned that MIM binding to Mad2 is blocked until the β7/β8 hairpin is displaced (Figure 3c,d). To test this hypothesis, we generated a Mad2 variant with a deleted β7/β8 hairpin (Mad2^∆β7/β8: residues 1–165) (Figure 3e). Mad2^∆β7/β8 adopted a stable globular fold, and due to the absence of the C‐terminal residues, it was unable to adopt a closed conformation (Figure 3f). […] This is in agreement with a previous study that showe ...

The test system of a further data set is C‐Mad2. The settings on record: phage-display selected MIM peptide; ref Luo et al., [2002]; cited from earlier work.
For the next data set, the system named is O‐Mad2. Particulars: NMR; ref Luo et al., [2004]; cited from earlier work. The method, then:
To understand whether Mad2 conversion times are modulated by different C‐Mad2 ligands, we used time‐resolved NMR to determine the conversion time of 100 μM O‐Mad2^R133A at 25°C. The indole NH resonances of Trp75 and Trp167 were used as reporters (Figure 2b). […] In contrast, conversion took ~24 h in the absence of Cdc20^MIM‐111‐138 peptide (Fischer et al., [2022]) (Figures 2c and ...

The conditions of data set [1]: cited from earlier work. The method, then:
In contrast, conversion took ~24 h in the absence of Cdc20^MIM‐111‐138 peptide (Fischer et al., [2022]) (Figures 2c and ...

For data set [2] the following is noted: experimentally determined; ref Zhao et al., [2016]; cited from earlier work.
The next data set deals with T2, Mad2^L13A/R133A (human, UniProt Q13257 1-205, L13A | R133A).
T2 construct: Mad2, human, full-length, L13A and R133A; made from the Mad2^R133A mutant; Adopts the closed state without ligand; Tag is followed by a TEV site; also called “empty” C-Mad2; C-Mad2^L13A/R133A; source: E. coli BL21 Star (DE3) with pRARE, purified
The data set is described as follows: time-resolved NMR (series of 2D 1H,15N HSQC spectra); 100 μM 15N Mad2 variant, MIM peptide at two-fold molar excess, 25°C, 20 mM HEPES pH 7.0, 100 mM NaCl, 1 mM TCEP, 5% D2O; Trp75 and Trp167 indole NH resonances as reporters of the ligand-bound closed state; 12 min per spectrum, up to 24 h. The settings on record: both partners purified.

A further data set addresses T3, Mad2^LL (human, UniProt Q13257 1-205, residues 109–117 (TAKDDSAPR) with GSG).
T3 construct: Mad2, human; wild-type construct with residues 109-117 of the β5-αC loop replaced by GSG; Tag is followed by a TEV site; also called loop-less Mad2 mutant; O-Mad2^LL; source: E. coli BL21 Star (DE3) with pRARE, purified
Described as above. Particulars: both partners purified.

In another data set the target is T4, human wild-type Mad2 (human, UniProt Q13257 1-205).
T4 construct: Mad2, human, wild type; limits follow from Mad2^Δβ7/β8 (residues 1-165), made from this construct by deleting residues 166-205; Tag is followed by a TEV site; 15N-labelled for NMR; Expressed and kept cold as the open state (O-Mad2); Construct described in Fischer et al. 2022; also called Mad2^WT; O-Mad2^WT; source: E. coli BL21 Star (DE3) with pRARE, purified
The data set is described as follows: SEC; excess of Mad1^MIM peptide added to O-Mad2^WT, complex purified by size-exclusion chromatography. The settings on record: both partners purified.

For another data set, the target named is T5, Mad2^R133A (human, UniProt Q13257 1-205, R133A).
T5 construct: Mad2, human, full-length, R133A; Tag is followed by a TEV site; 15N-labelled for NMR; Starts in the open state; also called O-Mad2^R133A; C-Mad2^R133A; source: E. coli BL21 Star (DE3) with pRARE, purified
The data set is described as follows: time-resolved NMR (series of 2D 1H,15N HSQC spectra); 100 μM 15N Mad2 variant, MIM peptide at two-fold molar excess, 25°C, 20 mM HEPES pH 7.0, 100 mM NaCl, 1 mM TCEP, 5% D2O; Trp75 and Trp167 indole NH resonances as reporters of the ligand-bound closed state; 12 min per spectrum, up to 24 h. The settings on record: both partners purified.

The next data set addresses T6, Mad2^LL/R133A (human, UniProt Q13257 1-205, residues 109–117 (TAKDDSAPR) with GSG | R133A).
T6 construct: Mad2, human; Mad2^LL construct (residues 109-117 replaced by GSG) with Ala for Arg133; numbers count on wild-type Mad2; Tag is followed by a TEV site; also called O-Mad2^LL/R133A; source: E. coli BL21 Star (DE3) with pRARE, purified
The data set is described as follows: time-resolved NMR (series of 1H,15N SOFAST-HMQC spectra, residue conversion rates); 200 μM Mad2 variant, 950 MHz, 25°C, 500 spectra of 5 min over 42 h; disappearance of O-Mad2 and appearance of C-Mad2:Cdc20^MIM backbone resonances. Particulars: both partners purified.

T5 sequence (Q13257 whole entry R133A): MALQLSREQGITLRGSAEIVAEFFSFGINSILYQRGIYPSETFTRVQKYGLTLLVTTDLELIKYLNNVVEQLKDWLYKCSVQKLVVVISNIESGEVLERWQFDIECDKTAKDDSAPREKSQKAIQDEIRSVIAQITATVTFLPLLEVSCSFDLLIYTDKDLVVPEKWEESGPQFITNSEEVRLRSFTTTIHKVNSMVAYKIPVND
T1 sequence (Q13257 whole entry R133A): as above
T6 sequence (Q13257 other isoform, or with tags, fused parts or gaps with the stated changes): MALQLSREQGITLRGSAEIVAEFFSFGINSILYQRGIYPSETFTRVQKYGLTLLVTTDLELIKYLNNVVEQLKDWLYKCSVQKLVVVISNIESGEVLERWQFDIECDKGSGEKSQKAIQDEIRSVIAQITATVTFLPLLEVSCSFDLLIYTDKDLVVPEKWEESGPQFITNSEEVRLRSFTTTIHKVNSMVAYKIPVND
T2 sequence (Q13257 whole entry L13A/R133A): as the sequence (Q13257 whole entry R133A) above, with L13A counted along it
T3 sequence (Q13257 other isoform, or with tags, fused parts or gaps with the stated changes): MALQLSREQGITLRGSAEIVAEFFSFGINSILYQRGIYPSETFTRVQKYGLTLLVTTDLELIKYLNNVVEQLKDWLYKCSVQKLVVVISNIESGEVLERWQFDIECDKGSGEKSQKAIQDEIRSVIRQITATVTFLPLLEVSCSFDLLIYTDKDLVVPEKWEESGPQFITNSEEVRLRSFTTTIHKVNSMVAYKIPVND
T4 sequence (Q13257 whole entry, the tested form may be a part): as the sequence (Q13257 whole entry R133A) above, with A133R counted along it

For the molecule SWYSYPPPQRAV [MBP1^MIM], at O‐Mad2^R133A (two-fold molar excess peptide, 20 mM HEPES pH 7.0, 100 mM NaCl, 1 mM TCEP, 5% D2O, Trp75/Trp167 indole NH reporters, 12 min per spectrum), the “time to complete Mad2 conversion” value is listed as at most 60 min. In addition, the “interaction with Mad2^∆β7/β8, in words” value with Mad2^∆β7/β8 is reported as “weak interaction”. Moreover, in the data set with C‐Mad2, the “C-Mad2 affinity, in words” value is recorded as “enhanced C‐Mad2 affinity”.
Consider “FDVEEAKILRLSGKP [Cdc20^MIM‐123‐137, Cdc20^MIM spanning residues 123–137]”, for which the “Mad2 conversion rate/efficiency, in words” value at O‐Mad2^R133A (time-resolved NMR, compared with other Cdc20^MIM peptides) is listed as “triggered Mad2 conversion at a similar rate as Cdc20^MIM‐111‐138”.
Take “Mad1 residues 540–551: Mad1 residues 540–551, earlier NMR study (Luo et al., [2004]) (TKVLHMSLNPTS; UniProt Q9Y6D9 540-551, looked up, fragment)”: the “effect on O-Mad2 to C-Mad2 conversion, in words” value with O‐Mad2 was “facilitate this conversion”.
As for “O‐Mad2^R133A: dimerization‐deficient mutant Mad2^R133A in its open state”, in data set [1] (100 μM, 25°C, absence of Cdc20^MIM-111-138 peptide, ref Fischer et al., [2022]), the “spontaneous conversion time to "empty" C-Mad2” value is on record as ~ 24 h.
For O‐Mad2: Mad2 in the open inactive state, in [1] (in solution, ref Faesen et al., [2017], Lad et al., [2009], Luo et al., [2004], Simonetta et al.), the “t1/2 of intrinsic O-Mad2 to C-Mad2 conversion, in words” value is “multiple hours”. Also, the melting temperature in data set [2] was 69 °C.

B1: Cdc20^MIM-111-138 (peptide)
peptide: EHQKAWALNLNGFDVEEAKILRLSGKPQ
notes: source: synthetic peptide (Cambridge Research Biochemicals)
In the case of B1, the binding result with Mad2^L13A/R133A and with Mad2^LL was “binds” throughout.

B2: Mad1^MIM-529-550 (peptide)
peptide: RALQGDYDQSRTKVLHMSLNPT
notes: as for B1
As for B2, the binding result with human wild-type Mad2 and in the data set with Mad2^R133A was “binds” each time.

B3: MBP1^MIM (peptide)
peptide: SWYSYPPPQRAV
notes: as for B1
On to B3, for which the binding result in the data set with Mad2^R133A is reported as “binds”.

B4: Cdc20^MIM-123-137 (peptide)
peptide: FDVEEAKILRLSGKP
notes: as for B1
In the case of B4, the binding result with Mad2^R133A was “binds”.

B5: Cdc20^MIM-123-152 (peptide)
peptide: FDVEEAKILRLSGKPQNAPEGYQNRLKVLY
notes: also called MIM peptide; source: synthetic peptide (Cambridge Research Biochemicals)
On to B5, for which the binding result with Mad2^LL/R133A and in the data set with Mad2^R133A was “binds” in each case.

The record behind these values is publication PMC11947619, “Molecular mechanism of Mad2 conformational conversion promoted by the Mad2‐interaction motif of Cdc20” (Protein Science : A Publication of the Protein Society, 2025).
